# Biological target: HLA-A*0201 molecule on human T2 cells (human)
# Experiment: not given
row,Binder,MFI above baseline (% higher than the baseline)
1,TLLLWVLLL (modifications not checked) [RSV F peptide No. 1 (F5-13)],10

# Biological target: HLA-A*0201 molecule on human T2 cells (human)
# Experiment: T2-based binding assay, flow cytometry with FITC anti-HLA-A2
row,Binder,MFI ratio (ratio to the negative control)
1,KIMTSKTDV (modifications not checked) [RSV F peptide No. 17 (F417-425)],0.91

# Biological target: HLA-A*0201 molecule on human T2 cells (human)
# Experiment: T2 cell-stabilization assay, flow cytometry with FITC anti-HLA-A2, peptide 50 µg/mL
Binder,MFI ratio (fold of the negative control),MFI above baseline (% higher than the baseline)
YMLTNSELL (modifications not checked) [RSV F peptide No. 14 (F273-281)],1.5,
KVLDLKNYI (modifications not checked) [RSV F peptide No. 13 (F214-222)],,10
ALLSTNKAV (modifications not checked) [RSV F peptide No. 8 (F193-201)],,10
SVGNTLYYV (modifications not checked) [RSV F peptide No. 18 (F474-482)],,10
VILLSLIAV (modifications not checked) [RSV F peptide No. 23 (F559-567)],1.5,
KLMSNNVQI (modifications not checked) [RSV F peptide No. 15 (F295-303)],1.5,
FLLGVGSAI (modifications not checked) [RSV F peptide No. 6 (F163-171)],,10
LMSNNVQIV (modifications not checked) [RSV F peptide No. 16 (F296-304)],1.5,
LLSLIAVGL (modifications not checked) [RSV F peptide No. 24 (F561-569)],1.5,
SLIAVGLLL (modifications not checked) [RSV F peptide No. 25 (F563-571)],,10
LLSTNKAVV (modifications not checked) [RSV F peptide No. 9 (F194-202)],1.5,
AITTILAAV (modifications not checked) [RSV F peptide No. 3 (F33-41)],1.5,
